± gives the uncertainty stated by the source.
Assay: protein stability index of a GFP-peptide fusion (yeast GPS) (PSI 1-4); higher = more stable; sorted into four equal gates, so the index is relative within each strain
Method in brief: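 Yeast carrying a pooled library were grown to mid-log phase in leucine-free medium. Each library plasmid expresses Cherry and has a tiled 17-residue yeast protein peptide fused downstream of GFP. Cells were sorted into four equal gates by GFP/Cherry ratio, and plasmids from each gate were PCR-amplified, Illumina-sequenced and assigned to strains by barcode. Summing, across gates, the read frequency times the gate number gave each peptide's protein stability index.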

Sequence | protein stability index (doa10∆) | protein stability index (pdr5∆) | protein stability index (san1∆) | protein stability index (ubr1∆)
SGNNNGGFTNLTSQAPQ [YDL088C/ASM4] | 3.24 ± 0.071 | 3.31 ± 0.053 | 3.16 ± 0.054 | 3.29 ± 0.042
LTLTDSQLAQVAAFVNN [BRR2] | 2.14 ± 0.084 | 2.18 ± 0.099 | 2.37 ± 0.15 | 2.69 ± 0.061
AHAQHQPSQQPQQAQQQ [GAL11] | 2.92 ± 0.041 | 3.03 ± 0.037 | 3 ± 0.032 | 2.98 ± 0.031
PNIFPNLTYYNEKLECI [ITC1] | 2.6 ± 0.07 | 2.58 ± 0.067 | 2.59 ± 0.056 | 2.68 ± 0.05
LNDEYNYPQLTEDILKE [YCS4] | 2.91 ± 0.15 | 3.12 ± 0.099 | 3 ± 0.071 | 3.49 ± 0.085
KEEFRLMISPKDEETTE [RRI2] | 1.75 ± 0.069 | 1.68 ± 0.055 | 1.14 ± 0.14 | 1.5 ± 0.039
IISTAIADSTHVKRITK [ECM29] | 2.94 ± 0.1 | 2.95 ± 0.092 | 2.6 ± 0.1 | 3.13 ± 0.078
ELSNELSRLSTASKIIV [MED1] | 2.68 ± 0.087 | 2.55 ± 0.089 | 2.72 ± 0.097 | 3.26 ± 0.077
AAPPSTNFEILNEMLNT [DIS3] | 2.9 ± 0.078 | 2.83 ± 0.11 | 2.95 ± 0.075 | 3.04 ± 0.061
LFGQSQQPQTNTAPGLG [YGR119C/NUP57] | 2.68 ± 0.2 | 2.88 ± 0.27 | 3.14 ± 0.16 | 2.97 ± 0.092
NGTLIGCVSYSPAALKQ [YMR153W/NUP53] | 1.85 ± 0.06 | 2.27 ± 0.086 | 1.83 ± 0.097 | 2.26 ± 0.045
FNLISNAGTEKEKESKK [YLR335W/NUP2] | 3.41 ± 0.077 | 3.35 ± 0.063 | 3.44 ± 0.044 | 3.45 ± 0.068
QEFFFHAMGGREGLIDT [RPO21] | 2.54 ± 0.081 | 2.17 ± 0.08 | 2.39 ± 0.087 | 2.08 ± 0.063
MFNNHEIDTILSTLRME [RPN9] | – | 3.51 ± 0.2 | 2.84 ± 0.13 | 3.03 ± 0.071
DKGLLPYAIMETANEIL [RPO31] | 2.95 ± 0.14 | 2.71 ± 0.19 | – | 2.25 ± 0.13
IIRQLSELNEGNLSKRE [SRB8] | 3.18 ± 0.12 | 3.53 ± 0.11 | 3.4 ± 0.1 | 3.42 ± 0.27
ESHIDSRNNTLNVTPSK [SIR4] | 2.77 ± 0.045 | 2.62 ± 0.038 | 2.75 ± 0.046 | 2.63 ± 0.033
KKRREYFPEGYNNKVGV [SIR2] | 2.42 ± 0.13 | 3.56 ± 0.19 | 2.54 ± 0.2 | 2.69 ± 0.047
DRDESSPYAAMLAAQDV [RPS14A] | 3.02 ± 0.088 | 3.21 ± 0.072 | 2.55 ± 0.09 | 3.27 ± 0.078
KIQETELKIRSKTENVR [RPT6] | 2.35 ± 0.11 | 2.61 ± 0.088 | 2.23 ± 0.16 | 2.57 ± 0.073

Sequence | protein stability index (doa10∆) | protein stability index (pdr5∆) | protein stability index (san1∆) | protein stability index (ubr1∆)
GNIFADLLPNSFAKLVP [SMC2] | 2.36 ± 0.045 | 2.86 ± 0.04 | 2.58 ± 0.05 | 2.62 ± 0.043
EDAFNFWFDKLVTKILP [YCG1] | 1.94 ± 0.21 | 2.5 ± 0.14 | 2.88 ± 0.12 | 2.94 ± 0.11
DERSQGEKNFTSAHLKL [SMC4] | 3.17 ± 0.16 | 3.4 ± 0.13 | 3.14 ± 0.076 | 3.36 ± 0.11
INAKNIAFASNYGIVEL [RRP43] | 2.04 ± 0.053 | 1.49 ± 0.056 | 1.4 ± 0.14 | 1.84 ± 0.051
SFSFGAPESMKSTASTA [YOR098C/NUP1] | 3.07 ± 0.069 | 3.13 ± 0.091 | 3.31 ± 0.059 | 3.12 ± 0.053
RPNRRGPRNTEEKGWVP [RPS2] | 3.42 ± 0.15 | 3.49 ± 0.13 | 3.68 ± 0.12 | 3.66 ± 0.079
RNQVQTENVAQARIILN [YGR119C/NUP57] | 3 ± 0.1 | 2.9 ± 0.092 | 3.01 ± 0.05 | 2.78 ± 0.042
DPFSDVDDDQDYVVAPG [GRR1] | 2.56 ± 0.12 | 2.17 ± 0.2 | 1.74 ± 0.19 | 3.55 ± 0.24
NDDALDLDLDLFDPDDF [MED4] | 2.88 ± 0.045 | 3.04 ± 0.068 | 2.81 ± 0.036 | 3.07 ± 0.032
FGAKPDENKASATSKPA [YJL041W/NSP1] | 2.59 ± 0.066 | 2.87 ± 0.052 | 2.56 ± 0.057 | 2.74 ± 0.052
ECLPAEGHDWKAPTKLD [DIS3] | 3.27 ± 0.098 | 3.21 ± 0.082 | 3.35 ± 0.071 | 3.23 ± 0.079
DFQPTELFDILSTSEDV [IRR1] | 3.04 ± 0.11 | 2.42 ± 0.1 | 2.82 ± 0.074 | 3.08 ± 0.081
ESAFENLMGNRNNHNSN [SNF12] | – | – | – | 3.44 ± 0.21
ERSDLLPYLSDTCAVSF [YJR042W/NUP85] | 2.31 ± 0.099 | 2.46 ± 0.06 | 2.59 ± 0.076 | 2.45 ± 0.041
KTIVTGGNGPEDFQQHE [RPO26] | 3.29 ± 0.069 | 3.33 ± 0.055 | 3.32 ± 0.056 | 3.31 ± 0.039
DCIIRLPVKWETTTQFK [FAS1] | 1.74 ± 0.083 | 2.03 ± 0.074 | 1.94 ± 0.091 | 2.43 ± 0.11
SSKLVDVYTLPSYVHFK [YML103C/NUP188] | 1.82 ± 0.047 | 1.61 ± 0.046 | 1.69 ± 0.061 | 1.46 ± 0.036
KIYMLYSLQPSVDITGG [RPC34] | 1.94 ± 0.13 | 2.27 ± 0.15 | – | 2.27 ± 0.14
VLCTRLRLSNFFTIDHF [SIR2] | 2.19 ± 0.064 | 1.5 ± 0.057 | 1.5 ± 0.097 | 1.28 ± 0.033
TKNGTPNPNNMKTVQSP [GAL11] | 2.96 ± 0.086 | 2.92 ± 0.081 | 2.77 ± 0.062 | 2.91 ± 0.066
